This is an account of results in patent US20220062341A1 (KIRIN, published 2022).

B1: modified TCR consisting of β12 and α8 (TCR)
TCR alpha: CANAFNNSIIPEDTFFPSPESSCDVKLVEKSFETDTNLNFQNLSVIGFRILLLKVAGFNLLMTLRLWSS
TCR beta: AKPVTQIVSAEAWGRADCGFTSESYQQGVLSATILYEILLGKATLYAVLVSALVLMAMVKRKDSRG
B2: modified TCR consisting of β12 and α9 (TCR)
TCR alpha: FNNSIIPEDTFFPSPESSCDVKLVEKSFETDTNLNFQNLSVIGFRILLLKVAGFNLLMTLRLWSS
TCR beta: AKPVTQIVSAEAWGRADCGFTSESYQQGVLSATILYEILLGKATLYAVLVSALVLMAMVKRKDSRG
B3: modified TCR consisting of β12 and α4 (TCR)
TCR alpha: DVYITDKTVLDMRSMDFKSNSAVAWSNKSDFACANAFNNSIIPEDTFFPSPESSCDVKLVEKSFETDTNLNFQNLSVIGFRILLLKVAGFNLLMTLRLWSS
TCR beta: AKPVTQIVSAEAWGRADCGFTSESYQQGVLSATILYEILLGKATLYAVLVSALVLMAMVKRKDSRG
B4: modified TCR consisting of β12 and α7 (TCR)
TCR alpha: SNKSDFACANAFNNSIIPEDTFFPSPESSCDVKLVEKSFETDTNLNFQNLSVIGFRILLLKVAGFNLLMTLRLWSS
TCR beta: AKPVTQIVSAEAWGRADCGFTSESYQQGVLSATILYEILLGKATLYAVLVSALVLMAMVKRKDSRG
B5: modified TCR consisting of β12 and α5 (TCR)
TCR alpha: LDMRSMDFKSNSAVAWSNKSDFACANAFNNSIIPEDTFFPSPESSCDVKLVEKSFETDTNLNFQNLSVIGFRILLLKVAGFNLLMTLRLWSS
TCR beta: AKPVTQIVSAEAWGRADCGFTSESYQQGVLSATILYEILLGKATLYAVLVSALVLMAMVKRKDSRG
B6: modified TCR consisting of β12 and α6 (TCR)
TCR alpha: KSNSAVAWSNKSDFACANAFNNSIIPEDTFFPSPESSCDVKLVEKSFETDTNLNFQNLSVIGFRILLLKVAGFNLLMTLRLWSS
TCR beta: AKPVTQIVSAEAWGRADCGFTSESYQQGVLSATILYEILLGKATLYAVLVSALVLMAMVKRKDSRG
B7: modified TCR consisting of β12 and α10 (TCR)
TCR alpha: IPEDTFFPSPESSCDVKLVEKSFETDTNLNFQNLSVIGFRILLLKVAGFNLLMTLRLWSS
TCR beta: AKPVTQIVSAEAWGRADCGFTSESYQQGVLSATILYEILLGKATLYAVLVSALVLMAMVKRKDSRG
B8: modified TCR ba11 (TCR)
TCR alpha: SVCLFTDFDSQTNVSQSKDSDVYITDKTVLDMRSMDFKSNSAVAWSNKSDFACANAFNNSIIPEDTFFPSPESSCDVKLVEKSFETDTNLNFQNLSVIGFRILLLKVAGFNLLMTLRLWSS
TCR beta: ATLVCLATGFYPDHVELSWWVNGKEVHSGVSTDPQPLKEQPALNDSRYCLSSRLRVSATFWQNPRNHFRCQVQFYGLSENDEWTQDRAKPVTQIVSAEAWGRADCGFTSESYQQGVLSATILYEILLGKATLYAVLVSALVLMAMVKRKDSRG
B9: modified TCR ba15 (TCR)
TCR alpha: SVCLFTDFDSQTNVSQSKDSDVYITDKTVLDMRSMDFKSNSAVAWSNKSDFACANAFNNSIIPEDTFFPSPESSCDVKLVEKSFETDTNLNFQNLSVIGFRILLLKVAGFNLLMTLRLWSS
TCR beta: AKPVTQIVSAEAWGRADCGFTSESYQQGVLSATILYEILLGKATLYAVLVSALVLMAMVKRKDSRG
B10: modified TCR ba12 (TCR)
TCR alpha: DVYITDKTVLDMRSMDFKSNSAVAWSNKSDFACANAFNNSIIPEDTFFPSPESSCDVKLVEKSFETDTNLNFQNLSVIGFRILLLKVAGFNLLMTLRLWSS
TCR beta: ATLVCLATGFYPDHVELSWWVNGKEVHSGVSTDPQPLKEQPALNDSRYCLSSRLRVSATFWQNPRNHFRCQVQFYGLSENDEWTQDRAKPVTQIVSAEAWGRADCGFTSESYQQGVLSATILYEILLGKATLYAVLVSALVLMAMVKRKDSRG
B11: modified TCR ba13 (TCR)
TCR alpha: KSNSAVAWSNKSDFACANAFNNSIIPEDTFFPSPESSCDVKLVEKSFETDTNLNFQNLSVIGFRILLLKVAGFNLLMTLRLWSS
TCR beta: ATLVCLATGFYPDHVELSWWVNGKEVHSGVSTDPQPLKEQPALNDSRYCLSSRLRVSATFWQNPRNHFRCQVQFYGLSENDEWTQDRAKPVTQIVSAEAWGRADCGFTSESYQQGVLSATILYEILLGKATLYAVLVSALVLMAMVKRKDSRG
B12: modified TCR ba3 (TCR)
TCR alpha: NIQNPDPAVYQLRDSKSSDKSVCLFTDFDSQTNVSQSKDSDVYITDKTVLDMRSMDFKSNSAVAWSNKSDFACANAFNNSIIPEDTFFPSPESSCDVKLVEKSFETDTNLNFQNLSVIGFRILLLKVAGFNLLMTLRLWSS
TCR beta: ATLVCLATGFYPDHVELSWWVNGKEVHSGVSTDPQPLKEQPALNDSRYCLSSRLRVSATFWQNPRNHFRCQVQFYGLSENDEWTQDRAKPVTQIVSAEAWGRADCGFTSESYQQGVLSATILYEILLGKATLYAVLVSALVLMAMVKRKDSRG
B13: modified TCR ba5 (TCR)
TCR alpha: NIQNPDPAVYQLRDSKSSDKSVCLFTDFDSQTNVSQSKDSDVYITDKTVLDMRSMDFKSNSAVAWSNKSDFACANAFNNSIIPEDTFFPSPESSCDVKLVEKSFETDTNLNFQNLSVIGFRILLLKVAGFNLLMTLRLWSS
TCR beta: FRCQVQFYGLSENDEWTQDRAKPVTQIVSAEAWGRADCGFTSESYQQGVLSATILYEILLGKATLYAVLVSALVLMAMVKRKDSRG
B14: modified TCR ba16 (TCR)
TCR alpha: DVYITDKTVLDMRSMDFKSNSAVAWSNKSDFACANAFNNSIIPEDTFFPSPESSCDVKLVEKSFETDTNLNFQNLSVIGFRILLLKVAGFNLLMTLRLWSS
TCR beta: AKPVTQIVSAEAWGRADCGFTSESYQQGVLSATILYEILLGKATLYAVLVSALVLMAMVKRKDSRG
B15: modified TCR ba17 (TCR)
TCR alpha: KSNSAVAWSNKSDFACANAFNNSIIPEDTFFPSPESSCDVKLVEKSFETDTNLNFQNLSVIGFRILLLKVAGFNLLMTLRLWSS
TCR beta: AKPVTQIVSAEAWGRADCGFTSESYQQGVLSATILYEILLGKATLYAVLVSALVLMAMVKRKDSRG
B16: modified TCR ba6 (TCR)
TCR alpha: NIQNPDPAVYQLRDSKSSDKSVCLFTDFDSQTNVSQSKDSDVYITDKTVLDMRSMDFKSNSAVAWSNKSDFACANAFNNSIIPEDTFFPSPESSCDVKLVEKSFETDTNLNFQNLSVIGFRILLLKVAGFNLLMTLRLWSS
TCR beta: AKPVTQIVSAEAWGRADCGFTSESYQQGVLSATILYEILLGKATLYAVLVSALVLMAMVKRKDSRG
B17: modified TCR ba10 (TCR)
TCR alpha: IPEDTFFPSPESSCDVKLVEKSFETDTNLNFQNLSVIGFRILLLKVAGFNLLMTLRLWSS
TCR beta: EDLKNVFPPEVAVFEPSEAEISHTQKATLVCLATGFYPDHVELSWWVNGKEVHSGVSTDPQPLKEQPALNDSRYCLSSRLRVSATFWQNPRNHFRCQVQFYGLSENDEWTQDRAKPVTQIVSAEAWGRADCGFTSESYQQGVLSATILYEILLGKATLYAVLVSALVLMAMVKRKDSRG
B18: modified TCR ba18 (TCR)
TCR alpha: IPEDTFFPSPESSCDVKLVEKSFETDTNLNFQNLSVIGFRILLLKVAGFNLLMTLRLWSS
TCR beta: AKPVTQIVSAEAWGRADCGFTSESYQQGVLSATILYEILLGKATLYAVLVSALVLMAMVKRKDSRG
B19: modified TCR ba7 (TCR)
TCR alpha: SVCLFTDFDSQTNVSQSKDSDVYITDKTVLDMRSMDFKSNSAVAWSNKSDFACANAFNNSIIPEDTFFPSPESSCDVKLVEKSFETDTNLNFQNLSVIGFRILLLKVAGFNLLMTLRLWSS
TCR beta: EDLKNVFPPEVAVFEPSEAEISHTQKATLVCLATGFYPDHVELSWWVNGKEVHSGVSTDPQPLKEQPALNDSRYCLSSRLRVSATFWQNPRNHFRCQVQFYGLSENDEWTQDRAKPVTQIVSAEAWGRADCGFTSESYQQGVLSATILYEILLGKATLYAVLVSALVLMAMVKRKDSRG
B20: modified TCR ba8 (TCR)
TCR alpha: DVYITDKTVLDMRSMDFKSNSAVAWSNKSDFACANAFNNSIIPEDTFFPSPESSCDVKLVEKSFETDTNLNFQNLSVIGFRILLLKVAGFNLLMTLRLWSS
TCR beta: EDLKNVFPPEVAVFEPSEAEISHTQKATLVCLATGFYPDHVELSWWVNGKEVHSGVSTDPQPLKEQPALNDSRYCLSSRLRVSATFWQNPRNHFRCQVQFYGLSENDEWTQDRAKPVTQIVSAEAWGRADCGFTSESYQQGVLSATILYEILLGKATLYAVLVSALVLMAMVKRKDSRG
B21: modified TCR ba14 (TCR)
TCR alpha: IPEDTFFPSPESSCDVKLVEKSFETDTNLNFQNLSVIGFRILLLKVAGFNLLMTLRLWSS
TCR beta: ATLVCLATGFYPDHVELSWWVNGKEVHSGVSTDPQPLKEQPALNDSRYCLSSRLRVSATFWQNPRNHFRCQVQFYGLSENDEWTQDRAKPVTQIVSAEAWGRADCGFTSESYQQGVLSATILYEILLGKATLYAVLVSALVLMAMVKRKDSRG

The target of one test is CD3 subunits (CD3E, CD3G, CD3D, CD3Z) (human, UniProt P07766 23-207; P09693 23-182; P04234 22-171; P20963 22-164). Kind of test: cell-based or functional assay.
Chain of CD3 subunits (CD3E, CD3G, CD3D, CD3Z) (P07766 23-207, chain 1 of 4): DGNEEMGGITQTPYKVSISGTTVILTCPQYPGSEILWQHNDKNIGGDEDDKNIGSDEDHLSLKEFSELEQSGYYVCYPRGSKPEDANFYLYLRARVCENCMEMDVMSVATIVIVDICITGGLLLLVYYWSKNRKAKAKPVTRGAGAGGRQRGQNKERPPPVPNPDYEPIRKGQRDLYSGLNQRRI
Chain of CD3 subunits (CD3E, CD3G, CD3D, CD3Z) (P09693 23-182, chain 2 of 4): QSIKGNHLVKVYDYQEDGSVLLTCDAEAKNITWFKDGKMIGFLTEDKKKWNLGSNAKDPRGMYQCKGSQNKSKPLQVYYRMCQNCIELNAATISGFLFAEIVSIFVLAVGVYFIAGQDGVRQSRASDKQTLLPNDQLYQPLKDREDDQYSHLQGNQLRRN
Chain of CD3 subunits (CD3E, CD3G, CD3D, CD3Z) (P04234 22-171, chain 3 of 4): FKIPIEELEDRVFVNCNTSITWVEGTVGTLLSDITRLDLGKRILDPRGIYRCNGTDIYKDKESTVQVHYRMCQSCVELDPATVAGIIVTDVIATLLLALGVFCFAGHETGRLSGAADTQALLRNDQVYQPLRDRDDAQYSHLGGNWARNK
Chain of CD3 subunits (CD3E, CD3G, CD3D, CD3Z) (P20963 22-164, chain 4 of 4): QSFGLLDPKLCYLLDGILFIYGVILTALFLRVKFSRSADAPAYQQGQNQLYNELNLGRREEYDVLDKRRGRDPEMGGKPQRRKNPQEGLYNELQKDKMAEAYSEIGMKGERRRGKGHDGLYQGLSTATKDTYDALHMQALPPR
For B1, the “CD3-recruiting activity (CD3-positive proportion, N=3), CD3-stably expressing 293T cells” value (shortened to “CD3-recruiting activity”) was no less than 20%.

Take B2: the “CD3-recruiting activity” value was no less than 20%.

With B3, the “CD3-recruiting activity” value is no less than 20%.

B4: the “CD3-recruiting activity” value is no less than 20%.

As to B5, the “CD3-recruiting activity” value is no less than 20%.

Regarding B6, the “CD3-recruiting activity” value is no less than 20%.

Consider B7, for which the “CD3-recruiting activity” value was no less than 20%.

In the next test the target is CD3E (human, UniProt P07766 23-207). As to the kind of experiment: cell-based or functional assay.
Chain of CD3E (P07766 23-207): as the sequence (P07766 23-207, chain 1 of 4) above
On to B8, for which the “CD3E-positive proportion [%] (Avg, n = 2), CD3-stably expressing 293T cells” value (shortened to “CD3E-positive proportion [%]”) turned out to be 83.2%.

Turning to B9, the “CD3E-positive proportion [%]” value is 56.5%.

In the case of B10, the “CD3E-positive proportion [%]” value was 51%.

With B11, the “CD3E-positive proportion [%]” value stood at 40.4%.

As to B12, the “CD3E-positive proportion [%]” value is 82.3%.

For B13, the “CD3E-positive proportion [%]” value is 48.4%.

In the case of B14, the “CD3E-positive proportion [%]” value amounted to 70.7%.

Consider B15, for which the “CD3E-positive proportion [%]” value came to 81.9%.

On to B16, for which the “CD3E-positive proportion [%]” value came to 47.6%.

As for B17, the “CD3E-positive proportion [%]” value is 86.5%.

B18: the “CD3E-positive proportion [%]” value came out at 89.5%.

For B19, the “CD3E-positive proportion [%]” value was determined as 88.6%.

Turning to B20, the “CD3E-positive proportion [%]” value was determined as 90.3%.

On to B21, for which the “CD3E-positive proportion [%]” value was 46.4%.
